Reference: patent US20060275312A1
Values belong to the binder of their own block, whether it stands above or below them.

Assays:
[1] = target: human IgE from serum of a representative allergic subject with high IgE reactivity to house dust mite allergens (human); experiment: competitive inhibition ELISA, human serum IgE, GST-Blo t5 on plate, inhibitor at 10 µg/ml
[2] = target: human IgE from serum of a representative allergic subject with high IgE reactivity to house dust mite allergens (human); experiment: competitive inhibition ELISA, human serum IgE, GST-Blo t5 on plate

- inhibition of IgE binding to GST-Bt5 [1]: 100%
B1: Blo t 5 (recombinant major house dust mite allergen from Blomia tropicalis) (protein)
chain: QEHKPKKDDFRNEFDHLLIEQANHAIEKGEHQLLYLQHQLDELNENKSKELQEKIIRELDVVCAMIEGAQGALERELKRTDLNILERFNYEEAQTLSKILLKDLKETEQKVKDIQTQ

- maximum inhibition of IgE binding to GST-Blo t5 [2]: 70%
B2: Blo t 5-Fve (two-in-one chimeric wild type) fusion protein (protein)
chain: QEHKPKKDDFRNEFDHLLIEQANHAIEKGEHQLLYLQHQLDELNENKSKELQEKIIRELDVVCAMIEGAQGALERELKRTDLNILERFNYEEAQTLSKILLKDLKETEQKVKDIQTQSATSLTFQLAYLVKKIDFDYTPNWGRGTPSSYIDNLTFPKVLTDKKYSYRVVVNGSDLGVESNFAVTPSGGQTINFLQYNKGYGVADTKTIQVFVVIPDTGNSEEYIIAEWKKT
